{"source": "patent US20240343781A1", "about": "(TRUSTEES OF COLUMBIA UNIVERSITY IN THE CITY OF NEW YORK, published 2024)", "binders": {"B1": {"name": "engineered monoclonal antibody 11-11 (antibody, V domains shown)", "VH": "QVQLQESGPGLVKPSQTLSLTCTVSGGSISSGGYYWSWIRQHPGKGLEWIGYIYYSGSTYYNPSLKSRVTISVDTSKNQFSLKVSSVTAADTAVYYCASSNYYDGSGYNLLESYGMDVWGQGTSVTVSS", "VL": "QSVLTQPPSVSGAPGQRVTISCTGSSSNIGAGYDVHWYQQLPGTAPKLLIYGNSNRPSGVPDRFSGSRSGTSASLAITGLQAEDEADYYCQSYDSSLSGSWVFGGGTKVTVL"}, "B2": {"name": "engineered monoclonal antibody 10-40 (antibody, V domains shown)", "VH": "QLQLQESGPGLVKPSETLSLTCTVSGGSISSSNFYWGWIRQPPGKGLEWIASITYSGRTFYNPSLKSRVAISVDTSKNQFSLKLSSVTAADTAVYYCARTFPSYYDRSGYHYLNYGMDVWGQGTTVTVSS", "VL": "NFMLTQPHSMSESPGKTVTISCTRSSGSIASNYVQWYQQRPGSSPTTVIYEDNQRPSGVPDRFSGSIDSSSNSASLTISGLKTEDEADYYCQSYDSSSWVFGGGTKLTVL"}}, "target": "SARS-COV spike on pseudovirus (SARS-CoV, UniProt P59594 14-1255)", "assay": "cell-based or functional assay", "data": [{"binder": "B1", "values": [{"measurement": "IC50, neutralization of pseudoviruses", "value": 0.025, "unit": "µg/mL"}]}, {"binder": "B2", "values": [{"measurement": "IC50, neutralization of pseudoviruses", "value": 0.019, "unit": "µg/mL"}]}]}
